B1: AP1σ3-His6 (full-length human AP1S3 with C-terminal His6 tag) (natural protein, UniProt Q96PC3-1 1-154, looked up)
chain: MIHFILLFSRQGKLRLQKWYITLPDKERKKITREIVQIILSRGHRTSSFVDWKELKLVYKRYASLYFCCAIENQDNELLTLEIVHRYVELLDKYFGNVCELDIIFNFEKAYFILDEFIIGGEIQETSKKIAVKAIEDSDMLQEVSTVSQTMGER
B2: AAGAB psGD (residues 2-177), tagless, coexpressed and co-purified with AP1σ3-His6 (domain or fragment, human, UniProt Q6PD74 2-177, looked up)
chain: AAGVPCALVTSCSSVFSGDQLVQHILGTEDLIVEVTSNDAVRFYPWTIDNKYYSADINLCVVPNKFLVTAEIAESVQAFVVYFDSTQKSGLDSVSSWLPLAKAWLPEVMILVCDRVSEDGINRQKAQEWCIKHGFELVELSPEELPEEDDDFPESTGVKRIVQALNANVWSNVVMK

Legend:
[1] = target: B2; experiment: crystal structure
[2] = target: B1; experiment: SEC

binding result [1]	stoichiometry N [2]	Binder
binds	–	B1
–	1	B2
